The values that follow come from article PMC11601596.

The target of experiment [1] is Citrobacter sp. RHBSTW-00271 BubCD (JAB/JAMM family peptidase-E1 fusion), wild type (Citrobacter sp. RHBSTW-00271). As to the kind of experiment: crystal structure.
In experiment [2] the target is Citrobacter sp. RHBSTW-00271 BubCD D104A peptidase domain mutant (Citrobacter sp. RHBSTW-00271). Description: crystal structure.

The stoichiometry N is the number of molecules, sites or subunits per partner or assembly. “Citrobacter sp. RHBSTW-00271 BubCD (JAB/JAMM family peptidase-E1 fusion), wild type (enzyme)” yielded a stoichiometry N in experiment [1] of 2.

“Citrobacter sp. RHBSTW-00271 BubCD D104A peptidase domain mutant (enzyme)”: in experiment [2], the stoichiometry N stood at 2.
